In paper PMC3546842, “Using BAC transgenesis in zebrafish to identify regulatory sequences of the amyloid precursor protein gene in humans”:

biological target: T1, E4BP4-DBD (NFIL3 DNA-binding domain) (zebrafish, UniProt Q68EL6 18-164); test: EMSA; not given; EMSA performed as in an earlier cited paper (ref 25); conditions: protein: recombinant; tags: N-terminal His6; additional pET-30a(+) vector residues; chain copies: 2
T1 sequence: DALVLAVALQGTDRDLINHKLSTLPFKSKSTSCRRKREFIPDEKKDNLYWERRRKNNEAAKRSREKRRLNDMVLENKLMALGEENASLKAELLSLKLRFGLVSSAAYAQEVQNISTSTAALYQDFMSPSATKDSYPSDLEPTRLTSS

| Binder | binding result |
| --- | --- |
| probe d (dsDNA) DNA 1: ATTGGTTCATTATGTAACTTTCCCAT DNA 2: ATGGGAAAGTTACATAATGAACCAAT | binds |
| probe c (dsDNA) DNA 1: ATTAAATTTTATGTAAAAATATGT DNA 2: ACATATTTTTACATAAAATTTAAT | binds |
| probe a (dsDNA) DNA 1: AATAAATGTTACATAATCCAAAGTC DNA 2: GACTTTGGATTATGTAACATTTATT | binds |
| probe e (E4BP4 site E11) (dsDNA) DNA 1: TGGTCAGTATTGTTATTACATAAGACATCAGCAAT DNA 2: ATTGCTGATGTCTTATGTAATAACAATACTGACCA | binds |
| probe b (dsDNA) DNA 1: GTAAGCTTTTATGTAAGTATTTTG DNA 2: CAAAATACTTACATAAAAGCTTAC | binds |
